Experimental data reported in patent publication US20130231277A1.

Target: FGFR1c endogenously expressed by HEK293 cells transiently transfected with murine βKlotho (UniProt P11362)
Experiment: cell-based or functional assay

Sequence of FGFR1c endogenously expressed by HEK293 cells transiently transfected with murine βKlotho (P11362 22-822): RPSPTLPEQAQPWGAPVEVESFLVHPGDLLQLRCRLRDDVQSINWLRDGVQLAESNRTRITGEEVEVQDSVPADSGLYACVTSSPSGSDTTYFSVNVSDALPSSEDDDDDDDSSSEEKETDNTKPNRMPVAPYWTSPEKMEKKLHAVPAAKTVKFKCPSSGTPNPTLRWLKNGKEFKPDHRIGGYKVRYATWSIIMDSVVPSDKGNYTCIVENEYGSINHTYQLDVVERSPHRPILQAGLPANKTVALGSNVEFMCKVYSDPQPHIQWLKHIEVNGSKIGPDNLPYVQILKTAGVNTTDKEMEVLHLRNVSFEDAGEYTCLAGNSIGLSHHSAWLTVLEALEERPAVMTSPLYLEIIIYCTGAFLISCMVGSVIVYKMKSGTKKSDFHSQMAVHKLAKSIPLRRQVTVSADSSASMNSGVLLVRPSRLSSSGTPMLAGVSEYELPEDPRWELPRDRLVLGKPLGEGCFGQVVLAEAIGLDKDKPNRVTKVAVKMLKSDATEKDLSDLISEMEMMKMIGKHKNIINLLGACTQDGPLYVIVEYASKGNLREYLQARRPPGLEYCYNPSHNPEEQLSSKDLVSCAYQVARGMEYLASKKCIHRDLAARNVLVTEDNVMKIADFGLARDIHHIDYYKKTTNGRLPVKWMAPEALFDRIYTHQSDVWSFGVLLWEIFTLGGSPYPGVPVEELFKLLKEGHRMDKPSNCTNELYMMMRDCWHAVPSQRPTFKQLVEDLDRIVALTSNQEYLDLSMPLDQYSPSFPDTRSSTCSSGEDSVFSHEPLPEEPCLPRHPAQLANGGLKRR

Q104M single mutant of human FGF21 (SEQ ID NO: 152) (from UniProt Q9NSA1 29-209) (ligand)
Induction of Egr1 protein expression (immunoblot, HEK293 cells co-expressing FGFR1c and βKlotho): 30 ng/mL
